This passage reports binding result and IC50 results from patent publication US20060073152A1 (Genentech, published 2006).

The target in assay [1] is T1, human serum albumin (human, UniProt P02768 25-609).
T1 construct: also called Human SA; HuSA
Put plainly: phage binding.

Assay [2] concerns the target T2, rabbit serum albumin (rabbit, UniProt P49065 25-608).
T2 construct: also called Rabbit SA; BuSA
The assay is described as follows: phage binding.

Assay [3] addresses T3, rat serum albumin (rat, UniProt P02770 25-608).
T3 construct: also called Rat SA; RSA
Put plainly: phage binding.

Assay [4] concerns the target T2, rabbit serum albumin. The assay is described as follows: peptide competition for albumin.
Assay [5] deals with T3, rat serum albumin. The assay is described as follows: peptide competition for albumin.
The target in assay [6] is T1, human serum albumin. Put plainly: phage binding. This is another data set of the same source.
The target of assay [7] is T2, rabbit serum albumin. Put plainly: phage binding. The source holds these as a separate data set.
In assay [8] the target is T3, rat serum albumin. Put plainly: phage binding. The source holds these as a separate data set.

Where two headings read alike, the source gives them in different places. No end group written: not given here.

T2 sequence (P49065 25-608 limits assumed): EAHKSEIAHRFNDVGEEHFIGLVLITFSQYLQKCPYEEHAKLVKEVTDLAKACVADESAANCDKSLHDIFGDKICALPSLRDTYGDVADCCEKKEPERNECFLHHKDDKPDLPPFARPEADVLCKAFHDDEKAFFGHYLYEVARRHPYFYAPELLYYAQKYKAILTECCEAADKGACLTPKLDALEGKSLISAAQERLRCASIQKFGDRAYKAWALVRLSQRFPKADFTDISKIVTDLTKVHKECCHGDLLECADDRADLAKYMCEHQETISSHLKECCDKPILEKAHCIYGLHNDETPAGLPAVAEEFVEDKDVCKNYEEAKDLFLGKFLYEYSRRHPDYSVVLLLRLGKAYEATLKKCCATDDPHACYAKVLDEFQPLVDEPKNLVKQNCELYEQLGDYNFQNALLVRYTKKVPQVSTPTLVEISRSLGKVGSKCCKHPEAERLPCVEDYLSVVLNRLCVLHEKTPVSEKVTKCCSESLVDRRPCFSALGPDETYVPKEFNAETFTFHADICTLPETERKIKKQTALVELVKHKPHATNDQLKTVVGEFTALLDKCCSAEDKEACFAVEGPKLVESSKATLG
T3 sequence (P02770 25-608 limits assumed): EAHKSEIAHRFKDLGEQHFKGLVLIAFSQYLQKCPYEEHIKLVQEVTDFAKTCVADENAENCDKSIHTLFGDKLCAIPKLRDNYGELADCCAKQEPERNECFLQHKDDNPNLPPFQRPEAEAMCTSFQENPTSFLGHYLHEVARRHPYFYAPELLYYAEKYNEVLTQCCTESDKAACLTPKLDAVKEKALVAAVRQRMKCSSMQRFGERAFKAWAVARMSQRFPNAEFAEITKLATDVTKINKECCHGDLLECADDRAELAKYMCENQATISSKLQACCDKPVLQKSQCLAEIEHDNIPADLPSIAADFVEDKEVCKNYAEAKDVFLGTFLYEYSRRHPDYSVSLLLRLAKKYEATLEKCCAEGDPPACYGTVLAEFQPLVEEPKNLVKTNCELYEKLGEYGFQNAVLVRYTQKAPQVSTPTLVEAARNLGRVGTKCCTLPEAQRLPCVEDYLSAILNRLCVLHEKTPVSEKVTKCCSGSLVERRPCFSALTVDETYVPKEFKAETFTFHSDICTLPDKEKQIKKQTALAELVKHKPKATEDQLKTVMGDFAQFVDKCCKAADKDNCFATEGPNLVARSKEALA

B1: RB-B6 (peptide)
peptide: QWQMENVCLPKWGCLWEELD
modifications: not fully specified (bridges); cysteine pairing not given here; also: phage-displayed
notes: on phage
For B1, the binding result with human serum albumin [1], with rabbit serum albumin [2] and with rat serum albumin [3] was “binds” throughout.

B2: SA10 (peptide)
peptide: Ac-RLMEDICLPRWGCLWEDD-NH2
modifications: cysteine pairing not given here
notes: free peptide
Usually IC50 stands for the concentration at which inhibition is half-maximal. Take B2: the figures for the half-maximal inhibitory concentration (IC50) with rabbit serum albumin [4] and with rat serum albumin [5] were 86 nM and 77 nM, respectively.

B3: RB-R16 (peptide)
peptide: LIFMEDVCLPQWGCLWEDGV
notes: on phage
For the molecule B3, the binding result in the assay with human serum albumin [6], in the assay with rabbit serum albumin [7] and with rat serum albumin [8] was “binds” each time.

B4: RB-B8 (peptide)
peptide: HSQMEDICLPRWGCLWGDEL
modifications: not fully specified (bridges); cysteine pairing not given here
notes: on phage
On to B4, for which the binding result with human serum albumin [1], with rabbit serum albumin [2] and with rat serum albumin [3] was “binds” in each case.

B5: RB-B5 (peptide)
peptide: QWHMEDICLPQWGCLWGDVL
notes: on phage
Regarding B5, the binding result with human serum albumin [1], with rabbit serum albumin [2] and in the assay with rat serum albumin [3] was “binds” each time.

B6: RB-B7 (peptide)
peptide: LRLMDNICLPRWGCLWDDGF
modifications: not fully specified (bridges); cysteine pairing not given here
notes: on phage
As for B6, the binding result with human serum albumin [1], with rabbit serum albumin [2] and with rat serum albumin [3] was “binds” in each case.

B7: HC-R10 (peptide)
peptide: QRDMGDICLPRWGCLWEDGV
modifications: not fully specified (bridges); cysteine pairing not given here; also: phage-displayed
notes: on phage
Consider B7, for which the binding result in the assay with human serum albumin [6], in the assay with rabbit serum albumin [7] and with rat serum albumin [8] was “binds” throughout.

B8: RB-B4 (peptide)
peptide: LWAMEDICLPKWGCLWEDDF
notes: on phage
As for B8, the binding result with human serum albumin [1], with rabbit serum albumin [2] and in the assay with rat serum albumin [3] was “binds” throughout.

B9: RB-B16 (peptide)
peptide: HRLVEDICLPRWGCLWGNDF
modifications: not fully specified (bridges); cysteine pairing not given here; also: phage-displayed
notes: on phage
In the case of B9, the binding result with human serum albumin [6], with rabbit serum albumin [7] and with rat serum albumin [8] was “binds” throughout.

B10: RB-B1 (peptide)
peptide: RWQTEDVCLPKWGCLFGDGV
modifications: not fully specified (bridges); cysteine pairing not given here; also: phage-displayed
notes: on phage
As to B10, the binding result with rabbit serum albumin [7] and in the assay with rat serum albumin [8] was “binds” throughout.

B11: RB-B12 (peptide)
peptide: QGLIGDICLPRWGCLWGDSV
notes: on phage; also called RB-R8
In the case of B11, the binding result with human serum albumin [6], with rabbit serum albumin [7] and with rat serum albumin [8] was “binds” each time.

B12: RB-H1 (peptide)
peptide: QRHPEDICLPRWGCLWGDDD
notes: on phage
Take B12: the binding result in the assay with human serum albumin [1], with rabbit serum albumin [2] and in the assay with rat serum albumin [3] was “binds” in each case.

B13: RB-H6 (peptide)
peptide: NRQMEDICLPQWGCLWGDDF
notes: on phage
Consider B13, for which the binding result with human serum albumin [1], in the assay with rabbit serum albumin [2] and in the assay with rat serum albumin [3] was “binds” in each case.
